These are literature values, as cited in paper PMC2917178.

The data set concerns the target Lys66 (UniProt position 148, FTKKMKENAKK). Conditions: native (folded) state.

Turning to “Staphylococcal nuclease V66K variant (Staphylococcus aureus; V66K)”, the pKa is given as 6.4.

Usually pKa stands for the pH at which an ionisable group is half protonated.
